Laboratory results from the DeepSol protein solubility set.

assay: soluble on expression in E. coli; label from the status in PepcDB or PDB records

| Sequence | soluble on expression in E. coli |
| --- | --- |
| MGSDKIHHHHHHMKKNVQIKGTKSGISIFLSDKASISELQQELSQLLADQKQNPYSGEKLEVQVQIGNRLFSEEEEREISTIIHNNSQMKISAFYSNVMSKDEAKKWKENDQIFSMATIIRSGQVVQVPGDFLLIGDVNPGGQIRSNGNVFVLGNIKGIIHAGFEGDENAVVAGKFLYPSQVRIAGKVYGFDSEDYKEVADTDLFSAFVNDAGEIVIDEIHKIRKIRPEISNFQGGR | not soluble |
| MGSDKIHHHHHHMKKSCKVSVHQLQIGNFVRLPVAWKDHPFLFSSFHIKQAAQIELIKNLGIAHVIVDLERSDVEPLSIDAVNPIKLPPAPEIHDLKNDMELYKAEQIEVQKKLRRDIHKTEQNFTRSVAMMRSMISKLRNRPLNAVDDAKDLVHSIVEQLLTSDNLVLHLMSDAKQDESIYYHSLNVAILSMLIAKEMEWSRSEIEAIGLSALFHDVGKLKIPPQILKKSTPWSAPELNFIKQHPLLGVELLKLAENFPPSALPAITNHHEFLDGTGYPKGLKEADLDQMSQLLAVVNEYDSLCYPNPQDKPMMPYAALGHLYKQYKTKLNQEYIGKIIKMLGIYPPGSVVELSSGQYAMVMSVNLQKLLCPKILVYDAQVPKDQAPIVDLELEGISIVRCLPPAALPEKVHEYLNPRERVSYYFGGDSRK | not soluble |
| MGSDKIHHHHHHMKKTIYKVLVSFYQYVGLGKKFHPSHDTVLIIGGSSNELGIELCETFIEDYHTKVINIDTIDSINGKNARRSEKLYTFISCKDFSDIKCLEESMLYLQNLEIIPTVLINNMQEGIESTLLKEDKFLRLDEESLNEFEKIVRYNLQSVILITKFCLSNIFPKVQAEAQEKAKGFYIVNISSVLTLKPCKSGTHFITSKCGINSFHDGITSELKLKDSNLNVKTLIAYLPSFESEAHWKRLSPSISKHLVHCLLEGRYGDTILESKRSIGDILLITGFKSSFT | not soluble |
| MGSDKIHHHHHHMKKTSFIYLLLLIALGLSSCQQEKTFKVLQFNIWQEGAVVKGGFDAIADEIVRSNADFVTLSEVRNYHQTRFCDRIVEALQQRGQTYYSFYTEDSGLLSRYPITDSTTVYPLNDDRGSMYKAITHIGDTEVALYTAHLDYRNCAYYDARGYDGNTWDEEPPVTNLDTLLWLNEQSVRDDAIACFLKEAKKDREAGRIVILGGDFNEPSHLDWTEATKDMRDHQGLVVPWHVSVMLEKDGFKDTYREIFPNPVTHPGLTCPADCKDIALEKLVWSPKADDRDRIDFIHYAPFEGLTLTDVCIIGPKGDILRGQRETEETSDPIMTPLGIWPTDHKAVLATFHLK | not soluble |
| MGSDKIHHHHHHMKKVRAAIVGYGNIGHYVLEALQAAPDFEIAGVVRRAGAENKPEELANYAVVKDIKELEGVEVAILCTPTRSVEKYAKEYLAMGINTVDSFDIHTGIVDLRRTLDATAKEHKAVSIISAGWDPGSDSIVRTMLEAIAPKGITYTNFGPGMSMGHTVAVKAIDGVKAALSMTIPTGTGIHRRMVYIELKDGYKFEEVAAAIKADPYFVNDETHVKLVPSVDALLDMGHGVNLTRKGVSGKTQNQLFEFNMRINNPALTAQVLVCVARASMKQQPGCYTMVEVPVIDLLPGDREEWIGHLV | not soluble |
| MGSDKIHHHHHHMKKYSLTPAMLEVCKEYNFFSDVSGFMPLTSENIKEIKIGKKFAYSHQDNNKPTHQKLSKIIFENFLSNIPLNQSAIAYVKKKSYFDFIEPHRNNYFFLRIDLKDFFHSISEDLLKRTLSDYFSSESLSETIKQSNIDAIFTFLTVNLKSDSSNVKFLDKKILPIGFPLSPNLANIVFRKTDLLLEKLCDMHGVTYTRYADDMLFSSRGIMEKNLLFRKNNNYKKPYIHSDNFLSEIKYLVSIDGFFINHNKTIKSVNTLSLNGYTISGTNFPDIEGKIRLSNKKTKIIEKVIHEININPDDKVTFEKCFKKEFPKPKYEKNRDNFINNLCTIKINQKLLGYRSYLISIIKFNNKFNCISESSEDKYNTLLSKIENVIKKRIK | not soluble |
| MGSDKIHHHHHHMKLKYVLYMAAALSLTGCNDSFLERGPQNLNDQSFWISVNDLKAYANAFYGLIPGGVSVLDDTDSDIQVPNDINSFLWGQYVVPTEGGVWQKSNWQNIRNINYFMTHYQSVQAAEADVNIYVAEMRFFRALEYFNKIQLLGDVPWLEVDLNVDSEELYGPKMKRNQVFQKIIEDLDFAIQWLPEAGSEEANRLNKDIARHVKARFCLNEGTHYKYHDELEYASEAEKWLQMAATESDKLITSGRYEIYNTGHPQEDYFNMYRIDDKSDLKEAVLYVDYKTNIREHNMAAAGREAGCGFSKSFVESFLCSDGLPISLSNKYLGDETMRKETANRDPRLKQLILTNDFPTNVTDDLKDSTFVVNEDEFITQHCFTGYRPIKGFNPIYSQALYMKSSFDGIAYRYAETLLINAEAKAELNTITNADLDRTVNQLRDRVGMPHLTVM | not soluble |
| MGSDKIHHHHHHMKLVDSIYGTYTVEPVISELIDSAPVQRLKGIHQGGACYIVKPSWNVTRFEHSIGVMLLIRKLGGSLEEQIAGLLHDVSHTAFSHVIDYVLAEEEEDYHEQIYEQVIRASEIPHILDKYGFDLERIVLNHSCWTLLEQPSPSLCADRIDYTLRDLYTYGHINKQEVDDFIANLIVVDGIISTSSVAGAEWFVRAYYKEVIDFFLDPLNVYGSSVLTSVLKSAVERKALGLDDFLKTDEELMEQLQRLNDDSIQKQLATLHPHVNVRENENHYHIHKTNKLRLIDPHVYLDGTFQRISSLSKQVKKWNEEAQRRADRGAYVEVLSS | not soluble |
| MGSDKIHHHHHHMKMTDPLYGTFEIEPVLAELIQSPLVSRLAHVHQGGSSYLVNPLWDLSRLDHSIGVMLFIRKFGGSLEEQIAGLLHDVSHTAFSHVVDYALDFEEEDYHEQIFEDFVKTSTIPAILEKYGYSFEGIFDDISKWKILEQEAPELCADRIDYTLQDLYRHRKISLAEVEEFLQALVMVDGRLYLANIALAEWFVAQYYSEVIDYFYDPLNVYSYEILAEAMRIAFQQETITTADLRLTDTELLAKLNANSDAREKIQLLASAHLEENEADFTYHHKKKMRLINPSILVDGRLIPADELSEKVRKMNDWASERSKHGIYIKATKKSKQ | not soluble |
| MGSDKIHHHHHHMKNANHRFFLRERLMKLKTTLFGNVYQFKDVKEVLAKANELRSGDVLAGVAAASSQERVAAKQVLSEMTVADIRNNPVIAYEDDCVTRLIQDDVNETAYNQIKNWSISELREYVLSDETSVDDIAFTRKGLTSEVVAAVAKICSNADLIYGAKKMPVIKKANTTIGIPGTFSARLQPNDTRDDVQSIAAQIYEGLSFGVGDAVIGVNPVTDDVENLSRVLDTIYGVIDKFNIPTQGCVLAHVTTQIEAIRRGAPGGLIFQSICGSEKGLKEFGVELAMLDEARAVGAEFNRIAGENCLYFETGQGSALSAGANFGADQVTMEARNYGLARHYDPFIVNTVVGFIGPEYLYNDRQIIRAGLEDHFMGKLSGISMGCDCCYTNHADADQNLNENLMILLATAGCNYIMGMPLGDDIMLNYQTTAFHDTATVRQLLNLRPSPEFERWLESMGIMANGRLTKRAGDPSLFF | not soluble |
| MGSDKIHHHHHHMKPIIIFFSLFLIPLFADDLKSGFGEEYYKLDIDQKRQIFFIKMNEMFDQSFKKIEQERAFIEAFFKDAYKTGFRTSNQINLEKLITIKNKYRIENLYDFAEYKKRIQKIPKSMGIAQALVESATGTSRFAREANNLFGEWTWGEKGLIPDLRHPDKKHKIKIFDSLQDSVDSYVLNLNRHFAYEKFRDARAKFESEGKEITGLEAIKTLDSYSERKGYYINLITKIIKRYNLEKYDTNSNNT | not soluble |
| MGSDKIHHHHHHMKRFLFSFLFGLVLLSGCDFEHEIIEILDMIVSEDQSTDVVAPPTSGEATITFFDVGQGDSTLIRSENYTVLVDTGRHDSDAIFTHLEKQQIDQIDLLILTHPHADHIGNADEIVRLYSPEEVWIDGNEATSKTFENVIDALLDSEAEVVEPRAGDVYERGDFLFEIVNPTKLTGDLNNDSIAFRLTYGDVRVVMTGDAEEAAEQEMVASGTDLEADIFKVAHHGSSTSNQPFFLDEIEPTVAIYSAGEDNSYGHPHREVTSLLNERGIDIFGTDIHGTVLITTDGHTYSIQTEH | not soluble |
| MGSDKIHHHHHHMKRKIIQQLKLWKDNPARKPLILLGARQVGKTWVMKHFGQTEFENVAYINCDVEPLAKELFAADYSIPRILLTLQAITGTKIEAGKTLIVFDELQEVERGLHSLKYFQENAPEYHVMAAGSLLGITLGKGQSFPVGKVNVMHLYPMDFEEFLMAAGETDLCDLLHQPDWEILKILSLKYVDLLRQYYYVGGMPEVVDCFFQHQNLQEVRDKQTEILDAYRRDISKHTTATESIRIGQVLQSLPSQLAKENKKFIYNVLKKGARATEYELAIQWLMDAGLVHKVSRIKELQMPVKFYEDLGAFKLFLLDCGLLGCMTEAPASQMLVGDNVFKEFKGAFTEQFVLQQLVAQGFSPYYWSSDKTPAEIDFVVQTEHRVIPVEVKAEENVRARSMSEYIKNHPDYQLKGLRISMMGYQDQEWMENIPLFAITKFFG | not soluble |
| MGSDKIHHHHHHMKRSKYQLGRIGRLTIDRIVSIGAYLDGGDTDILLPNRYLPSDAAPGMEVEVFVYHDNEGRLIATTMRPLVEVGQVALLHAVSVTDSGAYMEWGIHKDLFVPFREQTQLIREGGRYFVYAYIDHVSGKIVGSAKLSKHLGNIPPSYSPGDKVSALVYERIDPGYRMIVDHTHWGMIYSDTLPMPLAIGAQVKAFVIRLRDDGKIDLSLKPIGYDRIDSESERLLHMLQRRGGRLPIGDKSSPEEIMQHTGMSKKTFKMAVGMLYRRRLIRITPTAITLNETVSTPEA | not soluble |
| MGSDKIHHHHHHMKSFRNIMGDSQNLDKRIQKIKQNVINDTDVKHFLEKNRSNITNEMIDEDLNVLQEYKDQQKVYDGHRYDDCPNFVKGHVPELYIENERIKIRYLPCPCKIKHDEERFDSQLITSHHMQRDTLHAKLKDIYMNNRERLDVAMAADQICTAITNDEKVKGLYLYGPFGTGKSFILGAIANQLKSQKISSTIVYLPEFIRTLKGGFKDGSFEKKLQRVREANILMLDDIGAEEVTPWVRDEVIGPLLHYRMVHELPTFFSSNFNYSELEHHLSITRDGTEKTKAARIIERIKTLSTPYYLTGKNFRNN | not soluble |
| MGSDKIHHHHHHMKSYVLTVSCKSTRGIVAAITGYLAEKGCYISDSSQFDDFQTGLFFMRLTFISQDGAKLEELREGFEPVIKRFEMMMEIRDSEERMKVLLMVSRFGHCLNDLLYRWKIGALPIDIVGVVSNHFDYQKVVVNHDIPFHHIKVTKENKPKAEAQLMDVVEQTGAELIVLARYMQVLSDALCKKMSGKIINIHHSFLPSFKGANPYKQAYERGVKLIGATAHYVTADLDEGPIIEQDIARITHAQSAEDYVSIGRDVESQVLARAVHAHIHHRCFINGNRVVVFPPSPGSYASERMG | not soluble |
| MGSDKIHHHHHHMKTAEPQTIDDLERWIKSRGITEVECLVPDLSGIPRGKILPARKFLSCLRDRGLRLPESVFTQTVTGEYPEDDPVDIADSDVYLRPDPRTIRVVPWYEEPTAQVINDCFHRDRSEVHCAPRQVLRNILALYEKQGWKPVVAPELEFYLVRINADPDYPLEPPIGRSGRAETGRQAYGIDAVNEFDPLFEDIYDYAEEQNLDLDTLHHESGSAQMEINFLHGDPMELADQVFLFKRTVRQAALRHNVYATFMAKPLAGQPGSAMHLHQSITDAESGRNILVKKNGEDSDLFRWHIGGLQKYLPHCMLMLAPNVNSYRRFLPDQSAPINMHWGHDNRTVSLRVPYADASARRVENRLSGADANPYLAIAASLACGYLGMIEKIEPTAPITGSAYTRAHNLPRHLPDAIERFERARPLHELLNADFVRVYASVKWAEWDAYQHVISSWEREYLLLNV | not soluble |
